# Assay results taken from publication PMC10662749.
# “Also recorded” adds a separate entry of the source. Read-outs that look alike come from different tables or passages of the source.
Substance,other: neutralisation sensitivity (glycan lost),"other: neutralisation sensitivity, other: maximum % neutralisation (glycan lost)",other results
"SARS-CoV-2 spike, BA.1 (Omicron): N74Q",no change,"no change, 77 ± 9 vs 79 ± 7",
"SARS-CoV-2 spike, D614G: N1158Q",no change,"no change, 63 ± 3 vs 64 ± 4",
"SARS-CoV-2 spike, BA.1 (Omicron): N165Q",no change,"no change, 79 ± 7 vs 79 ± 7",
"SARS-CoV-2 spike, D614G: N17Q",no change,,
"SARS-CoV-2 spike, D614G: N717Q",no change,"no change, 67 ± 9 vs 64 ± 4; also recorded: decreases, 43 ± 6 vs 65 ± 7","other: pseudovirus infectivity, fold_change (glycan lost): decreases"
"SARS-CoV-2 spike, BA.1 (Omicron): N1194Q",no change,"no change, 75 ± 11 vs 79 ± 7",
"SARS-CoV-2 spike, BA.1 (Omicron): N17Q",no change,,
"SARS-CoV-2 spike, D614G: 20 μM swainsonine",,,other: pseudovirus infectivity (glycan changed form): no change
"SARS-CoV-2 spike, D614G: N61Q",no change,"no change, 61 ± 4 vs 64 ± 4","other: proteolytic processing (glycan lost): decreases; other: pseudovirus infectivity, fold_change (glycan lost): decreases"
"SARS-CoV-2 spike, D614G: N657Q",no change,"no change, 58 ± 4 vs 64 ± 4",
"SARS-CoV-2 spike, D614G: N1098Q",no change,"no change, 69 ± 11 vs 64 ± 4",
"SARS-CoV-2 spike, BA.4 (Omicron): N801Q",,,"other: pseudovirus infectivity, fold_change (glycan lost): abolishes"
"SARS-CoV-2 spike, BA.1 (Omicron): N801Q",,,other: proteolytic processing (glycan lost): decreases
"SARS-CoV-2 spike, D614G: N1173Q",no change,"no change, 73 ± 14 vs 64 ± 4; also recorded: decreases, 50 ± 5 vs 65 ± 7",
"SARS-CoV-2 spike, BA.1 (Omicron): N122Q",no change,"decreases, 36 ± 19 vs 79 ± 7",
"SARS-CoV-2 spike, BA.1 (Omicron): GnTI- cells",,,"other: proteolytic processing (glycan changed form): no change; other: pseudovirus infectivity, fold_change (glycan changed form): abolishes"
"SARS-CoV-2 spike, D614G: N1134Q",no change,"no change, 65 ± 5 vs 64 ± 4; also recorded: no change, 65 ± 4 vs 65 ± 7",
"SARS-CoV-2 spike, B.1.617.2 (Delta): 50 μM kifunensine",,,other: proteolytic processing (glycan changed form): no change; other: pseudovirus infectivity (glycan changed form): decreases
"SARS-CoV-2 spike, BQ.1.1 (Omicron): N801Q",,,"other: pseudovirus infectivity, fold_change (glycan lost): abolishes"
"SARS-CoV-2 spike, BA.1 (Omicron): N1074Q",no change,"no change, 86 ± 13 vs 79 ± 7",other: pseudovirus particle yield (p24) (glycan lost): decreases

Substance,other: neutralisation sensitivity (glycan lost),"other: neutralisation sensitivity, other: maximum % neutralisation (glycan lost)",other results
"SARS-CoV-2 spike, D614G: 50 μM kifunensine",,,"other: neutralisation sensitivity, other: maximum % neutralisation (glycan changed form): no change, 55 ± 9 vs 64 ± 4; other: proteolytic processing (glycan changed form): no change; other: pseudovirus infectivity (glycan changed form): decreases"
"SARS-CoV-2 spike, B.1.617.2 (Delta): N801Q",,,other: pseudovirus infectivity (glycan lost): no change
"SARS-CoV-2 spike, D614G: N234Q",,,"other: neutralisation sensitivity, fold_change (glycan lost): decreases"
"SARS-CoV-2 spike, B.1.617.2 (Delta): GnTI- cells",,,other: proteolytic processing (glycan changed form): no change; other: pseudovirus infectivity (glycan changed form): decreases
"SARS-CoV-2 spike, BA.1 (Omicron): N1098Q",no change,"no change, 85 ± 7 vs 79 ± 7",other: pseudovirus particle yield (p24) (glycan lost): decreases
"SARS-CoV-2 spike, BQ.1.1 (Omicron): N717Q",,,"other: pseudovirus infectivity, fold_change (glycan lost): abolishes"
"SARS-CoV-2 spike, BA.1 (Omicron): N149Q",no change,,
"SARS-CoV-2 spike, BA.1 (Omicron): N801A",,,"other: pseudovirus infectivity, fold_change (glycan lost): abolishes"
"SARS-CoV-2 spike, D614G: N343Q",no change,,"other: pseudovirus infectivity, fold_change (glycan lost): decreases"
"SARS-CoV-2 spike, D614G: N616Q",no change,"no change, 64 ± 7 vs 64 ± 4",
"SARS-CoV-2 spike, B.1.617.2 (Delta): 20 μM swainsonine",,,other: pseudovirus infectivity (glycan changed form): no change
"SARS-CoV-2 spike, D614G: N1194Q",no change,"no change, 66 ± 3 vs 64 ± 4; also recorded: no change, 60 ± 3 vs 65 ± 7",
"SARS-CoV-2 spike, BA.1 (Omicron): N616Q",no change,,
"SARS-CoV-2 spike, BA.1 (Omicron): 20 μM swainsonine",,,"other: neutralisation sensitivity, other: maximum % neutralisation (glycan changed form): no change, 74 ± 7 vs 54 ± 7; other: proteolytic processing (glycan changed form): no change; other: pseudovirus infectivity, fold_change (glycan changed form): no change"
"SARS-CoV-2 spike, BA.1 (Omicron): N282Q",no change,,
"SARS-CoV-2 spike, D614G: N74Q",no change,"no change, 62 ± 3 vs 64 ± 4",
"SARS-CoV-2 spike, D614G: N282Q",no change,,"other: neutralisation sensitivity, fold_change (glycan lost): decreases"
"SARS-CoV-2 spike, BA.4 (Omicron): N717Q",,,"other: pseudovirus infectivity, fold_change (glycan lost): abolishes"
"SARS-CoV-2 spike, D614G: N331Q",no change,"no change, 60 ± 4 vs 64 ± 4",
"SARS-CoV-2 spike, BA.1 (Omicron): N331Q",no change,,

Substance,other: neutralisation sensitivity (glycan lost),"other: neutralisation sensitivity, other: maximum % neutralisation (glycan lost)",other results
"SARS-CoV-2 spike, BA.1 (Omicron): N234Q",,"no change, 87 ± 4 vs 79 ± 7",
"SARS-CoV-2 spike, BA.1 (Omicron): N657Q",no change,,
"SARS-CoV-2 spike, D614G: N801Q",no change,"no change, 63 ± 4 vs 64 ± 4; also recorded: no change, 74 ± 7 vs 65 ± 7","other: pseudovirus infectivity, fold_change (glycan lost): decreases"
"SARS-CoV-2 spike, BA.1 (Omicron): N1173Q",no change,"no change, 80 ± 9 vs 79 ± 7",
"SARS-CoV-2 spike, BA.1 (Omicron): 50 μM kifunensine",,,"other: proteolytic processing (glycan changed form): no change; other: pseudovirus infectivity, fold_change (glycan changed form): abolishes"
"SARS-CoV-2 spike, BA.1 (Omicron): N61Q",no change,"no change, 73 ± 10 vs 79 ± 7",
"SARS-CoV-2 spike, D614G: N709Q",no change,"no change, 69 ± 6 vs 64 ± 4",
"SARS-CoV-2 spike, BA.1 (Omicron): N343Q",no change,"no change, 82 ± 6 vs 79 ± 7",
"SARS-CoV-2 spike, D614G: N122Q",no change,"no change, 62 ± 9 vs 64 ± 4; also recorded: decreases, 29 ± 4 vs 65 ± 7","other: pseudovirus infectivity, fold_change (glycan lost): decreases"
"SARS-CoV-2 spike, BA.1 (Omicron): N717Q",,,other: proteolytic processing (glycan lost): decreases
"SARS-CoV-2 spike, BA.1 (Omicron): N1158Q",no change,"no change, 86 ± 34 vs 79 ± 7",
"SARS-CoV-2 spike, BA.1 (Omicron): N709Q",no change,,
"SARS-CoV-2 spike, BA.1 (Omicron): N717A",,,"other: pseudovirus infectivity, fold_change (glycan lost): decreases"
"SARS-CoV-2 spike, D614G: N603Q",no change,"no change, 62 ± 3 vs 64 ± 4",
"SARS-CoV-2 spike, D614G: N149Q",no change,,
"SARS-CoV-2 spike, D614G: N1074Q",no change,"no change, 61 ± 4 vs 64 ± 4; also recorded: decreases, 45 ± 6 vs 65 ± 7","other: pseudovirus infectivity, fold_change (glycan lost): decreases"
"SARS-CoV-2 spike, BA.1 (Omicron): N603Q",no change,,
"SARS-CoV-2 spike, B.1.617.2 (Delta): N717Q",,,other: pseudovirus infectivity (glycan lost): no change
"SARS-CoV-2 spike, BA.1 (Omicron): N1134Q",no change,"no change, 73 ± 15 vs 79 ± 7",
"SARS-CoV-2 spike, D614G: N165Q",no change,,
